In patent publication US20180002754A1:

How the values were obtained:
[1] = target: Frizzled-2 (human Fzd2) (human) (UniProt Q14332); experiment: SPR (Biacore, by Precision Antibody); antibody as ligand, Frizzled-2 as analyte at 0-500 nM
[2] = target: Frizzled-2 (human Fzd2) (human) (UniProt Q14332); experiment: SPR (BioCore study performed by Precision Antibody), legend of FIG. 10
[3] = target: Frizzled-2 (human Fzd2) (human) (UniProt Q14332); experiment: SPR (Biacore) binding analysis, text to Table 1 and FIG. 10

Sequence of UniProt Q14332 (Q14332 24-247 limits assumed): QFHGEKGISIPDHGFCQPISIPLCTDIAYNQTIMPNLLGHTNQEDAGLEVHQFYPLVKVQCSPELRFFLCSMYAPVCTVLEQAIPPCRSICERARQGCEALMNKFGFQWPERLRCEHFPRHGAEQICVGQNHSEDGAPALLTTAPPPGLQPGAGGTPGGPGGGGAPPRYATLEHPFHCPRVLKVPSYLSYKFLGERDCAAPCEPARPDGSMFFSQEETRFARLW

Ka [1]: 5.2e+07 M⁻¹
Kd [1]: 0.019 µM
koff [1]: 0.00074 s⁻¹
kon [1]: 39000 M⁻¹ s⁻¹
Kd [2]: 0.02 µM
Kd [3]: < 0.02 µM
Substance: anti-Fzd2 antibody (R & D Systems; MAB1307)
